Results reported in patent US20170233492A1 (PHARMABCINE, published 2017).

B1: 1E4-IgG (antibody, V domains shown)
VH: QVQLVQSGAEVKKPGESLRISCQGSGYSFPTHWITWVRQMPGKGLEWMGTIDPTDSYNFYGPSFQGHVTISADSSSSTAYLQWSSLKASDTAMYYCARDGNYYDSRGYYYDTFDMWGQGTLVTVSS
VL: DIQMTQSPSFLSASVGDRVTITCRASQGISTYLAWYQQKPGTAPKLLIYSASTLESGVPSRFSGSGSGTDFTLTISSLQPEDSATYYCQQADSFPLTFGGGTKVEIKR
notes: also called 1E4 antibody; anti-c-Met IgG (1E4-IgG)
B2: 1E4-ScFv (scFv)
scFv: QVQLVQSGAEVKKPGESLRISCQGSGYSFPTHWITWVRQMPGKGLEWMGTIDPTDSYNFYGPSFQGHVTISADSSSSTAYLQWSSLKASDTAMYYCARDGNYYDSRGYYYDTFDMWGQGTLVTVSSGLGGLGGGGSGGGGSGGSSGVGSDIQMTQSPSFLSASVGDRVTITCRASQGISTYLAWYQQKPGTAPKLLIYSASTLESGVPSRFSGSGSGTDFTLTISSLQPEDSATYYCQQADSFPLTFGGGTKVEIKRGGASLVE
notes: also called soluble 1E4-ScFv; not shown: tags implied by Ni-NTA purification and anti-Myc detection

Tests used:
[1] = biological target: T1, Recombinant human HGF R/c-Met Fc chimera (R&D systems, cat no. 358-MT/CF) (human, UniProt P08581 25-932); test: SPR (BIAcore), human c-Met-Fc immobilized on chip, antibody flowed
T1 construct: Bought reagent; also called human c-Met-Fc; human-c-Met; not shown: Fc part of the purchased chimera
T1 sequence (P08581 25-932, change not shown): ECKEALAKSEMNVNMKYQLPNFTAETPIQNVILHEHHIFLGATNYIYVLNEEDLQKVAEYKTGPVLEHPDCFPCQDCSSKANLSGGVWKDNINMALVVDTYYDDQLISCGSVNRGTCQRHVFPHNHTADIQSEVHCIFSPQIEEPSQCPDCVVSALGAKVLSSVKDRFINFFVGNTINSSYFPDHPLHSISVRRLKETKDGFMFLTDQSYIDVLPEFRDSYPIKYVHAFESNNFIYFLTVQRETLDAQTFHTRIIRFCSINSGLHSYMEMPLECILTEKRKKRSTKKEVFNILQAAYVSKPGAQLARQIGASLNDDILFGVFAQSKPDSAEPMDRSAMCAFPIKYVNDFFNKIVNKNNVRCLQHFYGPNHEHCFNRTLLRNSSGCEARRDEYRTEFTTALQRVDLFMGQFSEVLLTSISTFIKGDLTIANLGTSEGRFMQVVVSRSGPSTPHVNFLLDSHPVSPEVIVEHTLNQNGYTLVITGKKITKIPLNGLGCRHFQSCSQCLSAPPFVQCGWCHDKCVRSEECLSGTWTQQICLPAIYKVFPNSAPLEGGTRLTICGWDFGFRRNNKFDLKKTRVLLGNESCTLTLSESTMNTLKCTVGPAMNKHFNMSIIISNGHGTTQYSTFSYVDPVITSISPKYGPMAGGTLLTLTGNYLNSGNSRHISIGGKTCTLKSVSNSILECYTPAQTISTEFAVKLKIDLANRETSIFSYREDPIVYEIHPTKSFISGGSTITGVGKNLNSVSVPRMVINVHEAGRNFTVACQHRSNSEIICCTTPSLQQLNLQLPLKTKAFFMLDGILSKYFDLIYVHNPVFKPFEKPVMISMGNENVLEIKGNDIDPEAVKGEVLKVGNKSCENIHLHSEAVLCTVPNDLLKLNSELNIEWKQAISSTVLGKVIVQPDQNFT
Protocol: (§1) The binding capacity to c-Met of the antibody was measured by BIAcore (GE Healthcare). According to the manufacturer's manual, sensorgrams were secured by immobilizing mouse-c-Met and human-c-Met (R&D system) on a CMS chip (GE Healthcare, Sweden), and flowing various amounts of antibodies. Rate constants kon and koff were measured on the basis of the sensorgrams secured at each concentration, and Kd was calculated from the ratio of rate constants (koff/kon) (Table 3). As a result, 1E4-IgG had high binding capacity with mouse-c-Met as well as binding capacity with human-c-Met (FIG. 8).

[2] = biological target: T2, mouse c-Met-Fc (mouse, UniProt P16056 25-931, limits assumed); test: SPR (BIAcore), mouse c-Met-Fc immobilized on chip, antibody flowed
T2 construct: Bought reagent (R&D system); also called mouse-c-Met (R&D system); not shown: Fc part
T2 sequence (P16056 25-931 limits assumed): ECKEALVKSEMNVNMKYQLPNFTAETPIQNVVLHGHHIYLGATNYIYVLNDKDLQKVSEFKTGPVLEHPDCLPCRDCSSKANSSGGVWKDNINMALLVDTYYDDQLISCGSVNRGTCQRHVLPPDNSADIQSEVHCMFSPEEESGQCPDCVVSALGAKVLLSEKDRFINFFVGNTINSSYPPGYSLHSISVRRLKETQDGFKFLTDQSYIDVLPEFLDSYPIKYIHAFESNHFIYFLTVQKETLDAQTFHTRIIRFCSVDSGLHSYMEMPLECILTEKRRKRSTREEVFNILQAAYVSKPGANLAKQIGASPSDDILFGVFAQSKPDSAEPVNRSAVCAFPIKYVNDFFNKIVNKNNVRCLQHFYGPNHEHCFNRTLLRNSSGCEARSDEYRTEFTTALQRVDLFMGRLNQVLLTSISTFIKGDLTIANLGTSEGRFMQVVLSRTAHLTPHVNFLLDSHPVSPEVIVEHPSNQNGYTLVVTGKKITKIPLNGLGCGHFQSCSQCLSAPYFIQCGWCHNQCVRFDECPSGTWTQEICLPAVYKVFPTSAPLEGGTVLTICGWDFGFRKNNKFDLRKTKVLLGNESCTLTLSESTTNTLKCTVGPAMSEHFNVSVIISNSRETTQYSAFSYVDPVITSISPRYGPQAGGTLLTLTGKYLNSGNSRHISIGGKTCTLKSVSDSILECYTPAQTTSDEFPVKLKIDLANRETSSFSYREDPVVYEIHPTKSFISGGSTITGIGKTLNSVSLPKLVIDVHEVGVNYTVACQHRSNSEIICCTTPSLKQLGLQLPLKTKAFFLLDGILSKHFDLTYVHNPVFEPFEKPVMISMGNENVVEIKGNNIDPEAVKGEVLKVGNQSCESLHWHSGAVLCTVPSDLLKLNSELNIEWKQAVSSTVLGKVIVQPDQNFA
Protocol: as §1

[3] = biological target: T1, Recombinant human HGF R/c-Met Fc …; test: SPR (BIAcore), human c-Met-Fc immobilized on chip, antibody flowed; koff/kon
Protocol: as §1

[4] = biological target: T2, mouse c-Met-Fc; test: SPR (BIAcore), mouse c-Met-Fc immobilized on chip, antibody flowed; koff/kon
Protocol: as §1

[5] = biological target: T1, Recombinant human HGF R/c-Met Fc …; test: phage ELISA, c-Met 100 ng coated, anti-M13-HRP detection, A450

Binder	koff [1] [s⁻¹]	kon [1] [M⁻¹ s⁻¹]	koff [2] [s⁻¹]	kon [2] [M⁻¹ s⁻¹]	Kd [3] [nM]	Kd [4] [nM]	binding result [5]
B1	0.000807	2.71e+06	0.00159	2.58e+06	0.298	0.615	–
B2	–	–	–	–	–	–	binds
